The record followed here is patent US20140199692A1.

In the experiment the target is eukaryotic translation initiation factor eIF4E (endogenous, in lysates of human cell lines) (UniProt P06730). As to the kind of experiment: immunoprecipitation of eIF4E from nuclear lysates.
Chain of eukaryotic translation initiation factor eIF4E (endogenous, in lysates of human cell lines) (P06730 2-217 limits assumed): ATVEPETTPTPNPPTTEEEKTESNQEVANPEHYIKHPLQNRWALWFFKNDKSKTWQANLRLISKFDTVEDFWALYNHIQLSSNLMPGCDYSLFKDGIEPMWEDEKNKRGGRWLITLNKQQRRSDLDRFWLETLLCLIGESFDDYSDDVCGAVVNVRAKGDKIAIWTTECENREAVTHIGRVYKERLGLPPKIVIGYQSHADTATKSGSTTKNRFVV

Substance “mouse monoclonal anti-eIF4E Ab (BD Transduction Laboratories) (antibody)” showed an efficiency of IP of under 80%.
